Assay results: patent US20170342107A1

Tests used:
[1] = biological target: mouse melanocortin-3 receptor (mouse) (UniProt P33033); assay: cell-based or functional assay
[2] = biological target: mouse melanocortin-4 receptor (mouse) (UniProt P56450); assay: cell-based or functional assay
[3] = biological target: mouse melanocortin-3 receptor (mouse) (UniProt P33033); assay: 125I-NDP-MSH competitive displacement, HEK293 cells stably expressing mMC3R
[4] = biological target: mouse melanocortin-4 receptor (mouse) (UniProt P56450); assay: 125I-NDP-MSH competitive displacement, HEK293 cells stably expressing mMC4R
[5] = biological target: mouse melanocortin-3 receptor (mouse) (UniProt P33033); assay: 125I-NDP-MSH competitive displacement, HEK293 cells stably expressing mMC3R; negative = more potent than control
[6] = biological target: mouse melanocortin-4 receptor (mouse) (UniProt P56450); assay: 125I-NDP-MSH competitive displacement, HEK293 cells stably expressing mMC4R; negative = more potent than control
[7] = biological target: mouse melanocortin-4 receptor (mouse) (UniProt P56450); assay: 125I-NDP-MSH competitive displacement, HEK293 cells stably expressing mMC4R; here negative = weaker binder than SKY4-48-1

mouse melanocortin-3 receptor (mouse), sequence (P33033 whole entry): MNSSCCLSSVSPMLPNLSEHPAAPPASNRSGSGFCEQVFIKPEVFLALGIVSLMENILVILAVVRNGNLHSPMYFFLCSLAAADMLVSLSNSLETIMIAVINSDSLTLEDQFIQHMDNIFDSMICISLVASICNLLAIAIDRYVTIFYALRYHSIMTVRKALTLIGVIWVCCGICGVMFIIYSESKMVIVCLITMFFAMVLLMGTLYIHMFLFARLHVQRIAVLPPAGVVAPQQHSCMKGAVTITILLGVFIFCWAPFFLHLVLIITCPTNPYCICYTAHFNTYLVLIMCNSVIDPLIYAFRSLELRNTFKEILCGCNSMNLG
mouse melanocortin-4 receptor (mouse), sequence (P56450 whole entry): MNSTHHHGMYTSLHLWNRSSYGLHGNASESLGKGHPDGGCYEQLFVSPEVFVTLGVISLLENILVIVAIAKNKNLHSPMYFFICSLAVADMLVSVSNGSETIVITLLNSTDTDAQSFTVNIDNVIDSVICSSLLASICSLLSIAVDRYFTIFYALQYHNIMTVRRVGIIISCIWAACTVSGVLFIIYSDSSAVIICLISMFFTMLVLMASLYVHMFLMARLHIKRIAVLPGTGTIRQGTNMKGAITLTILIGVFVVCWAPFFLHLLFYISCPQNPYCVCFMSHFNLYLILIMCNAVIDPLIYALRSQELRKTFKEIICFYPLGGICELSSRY

| Substance | Agonist Activity EC50 [1] | Agonist Activity EC50 [2] | Antagonist Activity K [2] | Antagonist Ki [2] | IC50 [3] | IC50 [4] | Fold Diff. (IC50 against SKY4-48-1) [5] | Fold Diff. (IC50 against SKY4-48-1) [6] | Antagonist Activity K [1] | pA2 (antagonist) [1] | Agonist Activity, % stimulation relative to maximum [2] | Agonist, % of NDP-MSH maximal response [2] | pA2 (antagonist) [2] | Fold Diff. (IC50 against SKY4-48-1) [3] | Fold Diff. (IC50 against SKY4-48-1) [7] | fold increase in agonist potency against SKY5-146-7 [1] |
| --- | --- | --- | --- | --- | --- | --- | --- | --- | --- | --- | --- | --- | --- | --- | --- | --- |
| SKY4-48-18, Ac-Arg-Arg-(pI)DPhe-Tic-NH2 (peptide) | 16 nM | > 100000 nM | 16 nM | 15 nM | 550 nM | 13 nM | -92 fold | -9 fold | – | – | – | – | – | – | – | – |
| SKY4-48-23, Ac-Phe-Arg-(pI)DPhe-Tic-NH2 (peptide) | – | – | – | – | 2500 nM | 135 nM | -20 fold | 1 fold | – | – | – | – | – | – | – | – |
| SKY4-48-42, Ac-Arg-Arg-(pI)DPhe-DNal(2')-NH2 (peptide) | 57 nM | > 100000 nM | 400 nM | – | 440 nM | 220 nM | -115 fold | 2 fold | – | – | – | – | – | – | – | – |
| SKY5-122-1, Ac-DTic-(pI)Phe-DArg-DHis-NH2 (peptide) | > 100000 nM | – | – | > 3100 nM | 800 nM | 6700 nM | – | – | 63 nM | 7.2 pA2 | 42 % @ 100 µM | 42 % @ 100 µM | 5.5 pA2 | 64 fold | -55 fold | – |
| SKY6-24-2, Ac-His-Arg-(pI)DPhe-Tic-NH2 (peptide) | 40 nM | > 100000 nM | 100 nM | – | 975 nM | 83 nM | -52 fold | 1 fold | – | – | – | – | 7 pA2 | – | – | 12 fold |
| SKY6-24-3, Ac-DNal(2')-Arg-(pI)DPhe-Tic-NH2 (peptide) | – | – | – | – | 420 nM | 43 nM | -120 fold | -3 fold | – | – | – | 32 % @ 100 µM | – | – | – | – |
